Columns and labels:
S. aureus cells [1] = test: Lytic assay of culture supernatant (SYTOX Green); type: cell-based, Staphylococcus aureus; settings: single point mutants
Protocol: (§1) S. aureus cells were grown either to mid-log or to saturation in tryptic soy broth (TSB) at 37° C. with shaking. The cells were harvested by centrifugation and washed once in phosphate buffered saline (PBS: 2.7 mM KCl, 1.5 mM KH2PO4, 8.9 mM Na2HPO4, 136.9 mM NaCl, pH 7.4). The assay was performed in 96-well, black, clear bottom plates from Greiner Bio-One (Monroe, N.C.). The final (250 μl) reaction was composed of 10 μl of P. pastoris culture supernatant, S. aureus cells at OD600=1.5, and 5 μM SYTOX Green (Thermo Fisher Scientific; Waltham, Mass.), all in PBS. Data were collected using SPECTRAMAX GEMINI Fluorescence Microplate Reader (Molecular Devices; Sunnyvale, Calif.) using an excitation/emission of 504/523 nm, and rates were determined from the slope of the steepest linear portion of the trace. Each assay was performed with 500 ng of commercially-sourced lysostaphin (ssLys) as an internal control.
The amount of protein used in each assay was estimated from SDS-PAGE gels. Briefly, 10 μl of culture supernatant was run on a SDS-PAGE gel together with standards of 0.5 μg, 0.7 μg, and 1 μg of ssLys in separate lanes. The gel was stained using GELCODE Blue Stain Reagent from Thermo Fisher Scientific (Carlsbad, Calif.) and bands quantified using Quantity Tools from Image Lab 5.1 software (Bio-Rad Laboratories; Hercules, Calif.).

S. aureus SA113 [2] = test: MIC assay using P. pastoris culture supernatant (MIC50); type: cell-based, Staphylococcus aureus; settings: aglycosylated mutants
Protocol: Lysostaphin MIC was determined essentially as described (Zhao, et al. (2014) supra). Briefly, 100 μl aliquots of P. pastoris culture supernatant were serially diluted in TSB. Each well was inoculated with 100 μl of ˜10^6 CFU/ml S. aureus SA113 in TSB. Microplates were incubated at 37° C. for 24 hours. […] MIC50 was quantified by measuring light scattering at 650 nm in a microplate reader.

S. aureus cells [3] = test: Lytic assay using purified protein (SYTOX kinetic assay); type: cell-based, Staphylococcus aureus; settings: for % WT Lytic Rate: biological duplicates; for % Wild-Type Activity: 200 ng purified enzyme
Protocol: as §1
The activity of purified lysostaphin variants was examined using the SYTOX kinetic assay as previously described in Chapter 2, Section 3.2.6. 200 ng of purified enzyme (instead of culture supernatant) was used in each reaction.

MRSA strain 3425-3 = test: MIC assay; type: cell-based, Staphylococcus aureus; settings: biological duplicates
Protocol: (§2) The MICs of wild-type lysostaphin and its variants were determined by adding 2-fold serial dilutions of enzymes into wells of a polypropylene 96-well plate (Costar 3879) containing ˜40,000 S. aureus SA113 (or S. aureus 6445, 3425-1, 3425-3) cells in Muller Hinton broth (BD) supplemented with 2% NaCl and 0.1% bovine serum albumin, yielding a total volume of 100 μl. Plates were grown overnight at 37° C. with shaking at 900 rpm on an Orbit P4 orbital shaker (Labnet; Edison, N.J.). […] The assay was performed in triplicate for each enzyme.

S. aureus 3425-1 = test: MIC assay; type: cell-based, Staphylococcus aureus; settings: biological duplicates
Protocol: as §2

S. aureus SA113 [4] = test: MIC assay; type: cell-based, Staphylococcus aureus; settings: for MIC Strain SA113: biological duplicates; for MIC: S. aureus SA113, purified enzyme
Protocol: as §2

S. aureus 6445 = test: MIC assay; type: cell-based, Staphylococcus aureus; settings: biological duplicates
[5] = Thermostability by differential scanning fluorimetry; type: physicochemical
Protocol: The relative thermostability of the lysostaphin variants was determined by differential scanning fluorimetry, as previously described (Niesen, et al. (2007) Nat. Protocols 2:2212-2221). Proteins and SYPRO Orange were diluted in PBS (final concentrations of 100 μg/ml and 5× in 20 μl reaction volume, respectively), and fluorescence was quantified at 1-degree increments from 25 to 94° C. using an Applied Biosystems ABI 7500 fast real-time PCR system. The reactions were performed using PCR Plates for Fast Thermocyclers (VWR; Radnor, Pa.). Fluorescence was quantified using the preset TAMRA parameters. Melting temperatures were determined by data analysis with the ‘DSF Analysis v3.0.xlsx’ EXCEL sheet and GraphPad Prism v.6.02 software.

pooled splenocytes = settings: mouse, in vivo
Text: HUMI mice were constructed by surgical transplantation of human bone marrow, liver, and thymus tissues into NOD/SCID/γc^−/− mice (Dartmouth Transgenics & Genetic Constructs Shared Resource) as described (Brainard, et al. (2009) J. Virol. 83:7305-21). All animals were humanized from the same human donor. Mice used experimentally had human lymphocytes as a minimum of 25% of their total peripheral blood leukocytes. Fourteen weeks post-engraftment, 12 female HUMI mice were divided into 3 groups of 4 each and immunized with a single 50 μl subcutaneous injection of 100 μg wild-type LST, 100 μg variant Flex 5, or 100 μg variant Flex 9 in complete Freund's adjuvant (CFA). Two weeks following the immunization, mice were sacrificed and splenocytes were harvested and pooled for each group. Pooled splenocytes (5×10^5/well) were plated in triplicate into 96-well plates with medium containing 5% fetal calf serum, 1-glutamine, antibiotics, and a final concentration of 10 μg/ml LST or variants (or 1% DMSO as a control). […]
In vivo immunogenicity was evaluated using NOD/SCID/γc^−/− mice that had been surgically humanized with human immune cells, liver tissue, and thymus tissue (HUMI mice). […] Cell proliferation was measured by tritiated thymidine uptake at 72 hours.

MRSA strain USA400 [6] = test: In vitro inhibitory activity (MIC); type: cell-based, Staphylococcus aureus
Text: F11, P12 and F13 were screened for in vitro inhibitory activity against MRSA strain USA400 (FIG. 7).

MRSA strain USA400 [7] = test: Efficacy of F12 in recurrent systemic MRSA infections; type: in vivo, DR4 HLA transgenic mice; settings: for # Treated Mice Surviving: 1×10^9 MRSA USA400 i.p., 500 μg enzyme 1 hour later
Protocol: In a similar set of experiments, the immunogenicity and efficacy of variant F12 was compared to wild-type LST in the absence of adjuvant using DR4 HLA transgenic mice. At week 0, mice were challenged with an intraperitoneal injection of 2×10^8 MRSA strain USA400, and 1 hour later the mice were treated with 500 μg wild-type LST or 500 μg variant F12, given as a single bolus subcutaneous injection. Subsequently, mice were challenged weekly with an intraperitoneal injection of 1×10^9 MRSA strain USA400, and treated as above. Antibody titers were measured weekly beginning at week 2. […] Variant F12 rescued all mice from four recurrent, systemic, MRSA infections (Table 24). The substantially lower antibody titers elicited by variant F12 indicate that this variant is […] than wild-type LST.

For Ser124Tyr, which “activity, % of the wild-type activity” value (S. aureus cells [1]) is on record?
Its value is 16%.

Which “activity compared to the wild-type lysostaphin” value (S. aureus SA113 [2]) does the source give for Thr127Ala here?
Its value is “equivalent activity”.

With “Commercial: Commercial lysostaphin purchased from Sigma, E. coli-produced” as the molecule, how does the “% WT Lytic Rate” value (S. aureus cells [3]) read?
Its value is 60 ± 20%.

What about the “MIC Strain 3425-3” value (MRSA strain 3425-3) of the same molecule?
Its value is 0.03 µg/mL.

And the “MIC Strain 3425-1” value (S. aureus 3425-1)?
Its value is 0.04 µg/mL.

And the “MIC Strain SA113” value (S. aureus SA113 [4])?
Its value is 0.03 µg/mL.

What about the “MIC Strain 6445” value (S. aureus 6445) of the same molecule?
The value was 0.03 µg/mL.

And the Tm ([5]; biological duplicates)?
Its Tm is 47.3 °C.

For Phe38Gly, which “activity, % of the wild-type activity” value (S. aureus cells [1]) is on record?
Its value is 69%.

Which “activity compared to the wild-type lysostaphin” value (S. aureus SA113 [2]) does the source give for “Ser126Pro: aglycosylated lysostaphin mutant Ser126Pro, backbone of the designs” here?
Its value is “equivalent activity”.

With “Flex 14: lysostaphin variant I41E, S122D; two mutation design shared between rigid and flexible designs” as the molecule, how does the “% Wild-Type Activity” value (S. aureus cells [3]) read?
Its value is 69%.

What about the MIC (S. aureus SA113 [4]) of the same molecule?
The MIC was 0.0833 µg/mL.

And the Tm ([5]; SYPRO Orange, PBS)?
The Tm was 58.6 °C.

B1: Flex 9: lysostaphin variant N12G, I41E, L83M, K95E, I99Q, N121G, S122D, S124G (protein, UniProt P10547 248-493, looked up, variant N12G I41E L83M K95E I99Q N121G S122D S124G)
Lysostaphin: AATHEHSAQWLGNYKKGYGYGPYPLGINGGMHYGVDFFMNEGTPVKAISSGKIVEAGWSNYGGGNQIGLIENDGVHRQWYMHMSKYNVKVGDYVEAGQQIGWSGSTGYSTAPHLHFQRMVGDFGNSTAQDPMPFLKSAGYGKAGGTVTPTPNTGWKTNKYGTLYKSESASFTPNTDIITRTTGPFRSMPQSGVLKAGQTIHYDEVMKQDGHVWVGYTGNSGQRIYLPVRTWNKSTNTLGVLWGTIK
Which “% Wild-Type Activity” value (S. aureus cells [3]) does the source give for B1 here?
Its value is 57%.

What about the “% WT Lytic Rate” value (S. aureus cells [3]) of the same molecule?
Its value is 60 ± 20%.

And the “MIC Strain 3425-3” value (MRSA strain 3425-3)?
The value was 0.2 µg/mL.

What about the “MIC Strain 3425-1” value (S. aureus 3425-1) of the same molecule?
Its value is 0.2 µg/mL.

What about the MIC (S. aureus SA113 [4]) of the same molecule?
Its MIC is 0.1250 µg/mL.

What about the concentration preventing outgrowth (S. aureus SA113 [4]; all four strains (SA113, 6445, 3425-1, 3425-3)) of the same molecule?
Its concentration preventing outgrowth is no more than 200 ng/mL.

And the “MIC Strain SA113” value (S. aureus SA113 [4])?
Its value is 0.04 µg/mL.

What about the “MIC Strain 6445” value (S. aureus 6445) of the same molecule?
The value was 0.13 µg/mL.

And the Tm ([5]; SYPRO Orange, PBS)?
Its Tm is 53.0 °C.

And the Tm ([5]; biological duplicates)?
Its Tm is 52.8 °C.

And the “reduced proliferative response relative to wild-type group” value (pooled splenocytes)?
Its value is 65%.

B2: Flex 1: lysostaphin variant I41E, I99Q, S122D (SEQ ID NO:32) (protein)
chain: AATHEHSAQWLNNYKKGYGYGPYPLGINGGMHYGVDFFMNEGTPVHAISSGKIVEAGWSNYGGGNQIGLIENDGVHRQWYMHLSKYNVKVGDYVKAGQIIGWSGSTGYSTAPHLHFQTMVNDFGNPTAQDPMPFLKSAGYGKAGGTVTPTPNTGWKTNKYGTLYKSESASFTPNTDIITRTTGPFRSMPQSGVLKAGQTIHYDEVMKQDGHVWVGYTGNSGQRIYLPVRTWNKSTNTLGVLWGTIK
Which “% Wild-Type Activity” value (S. aureus cells [3]) does the source give for B2 here?
The value was 63%.

What about the MIC (S. aureus SA113 [4]) of the same molecule?
Its MIC is 0.0833 µg/mL.

And the Tm ([5]; SYPRO Orange, PBS)?
The Tm was 55.4 °C.

B3: Flex 6: lysostaphin variant N12G, I41E, I99Q, N121G, S122D (protein, UniProt P10547 248-493, looked up, variant N12G I41E I99Q N121G S122D)
Lysostaphin: AATHEHSAQWLGNYKKGYGYGPYPLGINGGMHYGVDFFMNEGTPVKAISSGKIVEAGWSNYGGGNQIGLIENDGVHRQWYMHLSKYNVKVGDYVKAGQQIGWSGSTGYSTAPHLHFQRMVGDFSNSTAQDPMPFLKSAGYGKAGGTVTPTPNTGWKTNKYGTLYKSESASFTPNTDIITRTTGPFRSMPQSGVLKAGQTIHYDEVMKQDGHVWVGYTGNSGQRIYLPVRTWNKSTNTLGVLWGTIK
With B3 as the molecule, how does the “% Wild-Type Activity” value (S. aureus cells [3]) read?
The value was 58%.

What about the MIC (S. aureus SA113 [4]) of the same molecule?
Its MIC is 0.2083 µg/mL.

What about the Tm ([5]; SYPRO Orange, PBS) of the same molecule?
Its Tm is 54.1 °C.

B4: Flex 10: lysostaphin variant N12G, I41E, N121G, S122D (protein, UniProt P10547 248-493, looked up, variant N12G I41E N121G S122D)
Lysostaphin: AATHEHSAQWLGNYKKGYGYGPYPLGINGGMHYGVDFFMNEGTPVKAISSGKIVEAGWSNYGGGNQIGLIENDGVHRQWYMHLSKYNVKVGDYVKAGQIIGWSGSTGYSTAPHLHFQRMVGDFSNSTAQDPMPFLKSAGYGKAGGTVTPTPNTGWKTNKYGTLYKSESASFTPNTDIITRTTGPFRSMPQSGVLKAGQTIHYDEVMKQDGHVWVGYTGNSGQRIYLPVRTWNKSTNTLGVLWGTIK
With B4 as the molecule, how does the “% Wild-Type Activity” value (S. aureus cells [3]) read?
Its value is 62%.

What about the MIC (S. aureus SA113 [4]) of the same molecule?
The MIC was 0.0729 µg/mL.

And the Tm ([5]; SYPRO Orange, PBS)?
Its Tm is 57.5 °C.

B5: F12: variant combining cell wall binding domain mutations with Flex 9 (or derivative) catalytic domain (Table 22) (protein)
chain: AATHEHSAQWLGNYKKGYGYGPYPLGINGGMHYGVDFFMNEGTPVKAISSGKIVEAGWSNYGGGNQIGLIENDGVHRQWYMHMSKYNVKVGDYVKAGQQIGWSGSTGYSTAPHLHFQRMVGDFGNPTAQDPMPFLKSAGYGKAGGTVTPTPNTGWKTNKHGTLYKNESGSFTPNTDIITRTTGPFTSMPQSGVLKAGQTIHYDEVMKQDGHVWVGYTGNSGQRIYLPVRTWQKSTDTLGVLWGTIK
For B5, which “MIC activity relative to wild-type LST” value (MRSA strain USA400 [6]) is on record?
The value was 25%.

What about the “retained original MIC activity after heating” value (MRSA strain USA400 [6]; 50° C. for 1 hour prior to assay) of the same molecule?
The value was 50%.

What about the “recurrent systemic MRSA infections from which mice were rescued” value (MRSA strain USA400 [7]; 500 μg s.c., weekly challenges, no adjuvant) of the same molecule?
Its value is “four”.

What about the “# Treated Mice Surviving” value (MRSA strain USA400 [7]; Week 1) of the same molecule?
Its value is 9.

What about the “# Treated Mice Surviving” value (MRSA strain USA400 [7]; Week 2) of the same molecule?
Its value is 8.

What about the “# Treated Mice Surviving” value (MRSA strain USA400 [7]; Week 3) of the same molecule?
Its value is 7.

What about the “# Treated Mice Surviving” value (MRSA strain USA400 [7]; Week 4) of the same molecule?
The value was 6.

B6: Flex 8: lysostaphin variant N12G, I41E, L83M, I99Q, N121G, S122D (protein, UniProt P10547 248-493, looked up, variant N12G I41E L83M I99Q N121G S122D)
Lysostaphin: AATHEHSAQWLGNYKKGYGYGPYPLGINGGMHYGVDFFMNEGTPVKAISSGKIVEAGWSNYGGGNQIGLIENDGVHRQWYMHMSKYNVKVGDYVKAGQQIGWSGSTGYSTAPHLHFQRMVGDFSNSTAQDPMPFLKSAGYGKAGGTVTPTPNTGWKTNKYGTLYKSESASFTPNTDIITRTTGPFRSMPQSGVLKAGQTIHYDEVMKQDGHVWVGYTGNSGQRIYLPVRTWNKSTNTLGVLWGTIK
What does the source list for B6?
% Wild-Type Activity (S. aureus cells [3]): 60%; MIC (S. aureus SA113 [4]): 0.2083 µg/mL; Tm ([5]; SYPRO Orange, PBS): 52.9 °C
